Target: N-terminal hexahistidine-tagged CrlT (Pseudomonas aeruginosa WK172)
Experiment: pull-down; NHis-CrlT and untagged CrlA co-produced from pET28b-His-crlTA in E. coli BL21; Ni-NTA resin, lysis buffer 50 mM potassium phosphate pH 8.0, 300 mM NaCl; Tricine-SDS-PAGE

untagged antitoxin CrlA (natural protein)
stoichiometry N: 1

— PMC9127804
